What is called Kd is the constant that tells how readily two partners part at equilibrium.

Where two headings read alike, the source gives them in different places.

Experiment in all cases: SPR
Background: SPR reads the build-up and loss of mass on a sensor chip optically.

Test [1] deals with T1, Recombinant human IL-17A (human, UniProt Q16552 20-155, limits assumed).
T1 sequence (Q16552 20-155 limits assumed): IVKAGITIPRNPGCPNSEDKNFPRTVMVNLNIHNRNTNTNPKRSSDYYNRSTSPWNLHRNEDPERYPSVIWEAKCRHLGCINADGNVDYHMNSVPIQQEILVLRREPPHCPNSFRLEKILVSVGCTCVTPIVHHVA
The target in test [2] is T1, Recombinant human IL-17A. This is another data set of the same source.
For test [3], the target named is T2, Recombinant human IL-17A (human, UniProt Q16552 20-155, limits assumed). The source holds these as a separate data set.
T2 sequence (Q16552 20-155 limits assumed): as above
Test [4] concerns the target T2, Recombinant human IL-17A. This is another data set of the same source.
Test [5] concerns the target T3, His-tagged recombinant human CD-19 (human, UniProt P15391 20-291, limits assumed).
T3 sequence (looked up): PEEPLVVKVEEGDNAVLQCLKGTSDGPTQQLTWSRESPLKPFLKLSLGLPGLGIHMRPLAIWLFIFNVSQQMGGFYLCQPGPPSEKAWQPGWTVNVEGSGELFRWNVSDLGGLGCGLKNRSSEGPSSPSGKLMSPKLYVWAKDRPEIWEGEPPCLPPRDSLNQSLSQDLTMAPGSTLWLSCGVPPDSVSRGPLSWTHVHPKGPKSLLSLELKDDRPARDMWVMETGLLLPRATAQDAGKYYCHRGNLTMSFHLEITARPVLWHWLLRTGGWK

For test [6], the target named is T3, His-tagged recombinant human CD-19. The source holds these as a separate data set.
Test [7] deals with T4, His-tagged recombinant human CD-19 (human, UniProt P15391 20-291, limits assumed).
T4 sequence (looked up): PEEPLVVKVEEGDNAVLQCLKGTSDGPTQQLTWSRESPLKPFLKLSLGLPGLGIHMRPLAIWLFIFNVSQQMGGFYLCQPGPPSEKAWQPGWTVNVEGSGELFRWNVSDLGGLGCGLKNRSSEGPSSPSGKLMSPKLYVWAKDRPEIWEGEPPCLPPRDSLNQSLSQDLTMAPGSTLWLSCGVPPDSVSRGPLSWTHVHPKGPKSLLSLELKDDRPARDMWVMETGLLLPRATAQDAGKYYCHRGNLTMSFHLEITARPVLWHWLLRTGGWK
The source holds these as a separate data set.

For test [8], the target named is T4, His-tagged recombinant human CD-19. This is another data set of the same source.

B1: Design 2979 bispecific antibody, System A (CAT-2200 H1/L1 & Pertuzumab H2/L2) (bispecific antibody)
chain 1: not shown
chain 2: NFMLTQPHSVSESPGKTVTISCTRSSGSLANYYVQWYQQRPGSSPTIVIFANNQRPSGVPDRFSGSIDSSSNSASLTISGLKTEDEADYYCQTYDPYSVVFGGGTKLTVLGQPKAAPSVTLFPPSSEELQANKATLVCLISDFYPGAVTVAWKADSSPVKAGVETTTPSKQSNNKYAAESELSLTPEQWKSHRSYSCQVTHEGSTVEKTVAPTECS
chain 3: not shown
chain 4: DIQMTQSPSSLSASVGDRVTITCKASQDVSIGVAWYQQKPGKAPKLLIYSASYRYTGVPSRFSGSGSGTDFTLTISSLQPEDFATYYCQQYYIYPYTFGQGTKVEIKRTVAAPSVFIFPPSDEQLKSGTARVGCLLNNFYPREAKVQWKVDNALQSGNSQESVTEQDSKDSTYSLRSTLTLSKADYEKHKVYACEVTHQGLSSPVTKSFNRGEC
Take B1: the “Difference in H1L1 log(KD) from wild type” value (from here on “Difference in H1L1 log(KD)”) with Recombinant human IL-17A [1] is -0.03. The Kd with Recombinant human IL-17A [2] was 0.31 nM.

B2: Design 2994 bispecific antibody, System A (CAT-2200 H1/L1 & Pertuzumab H2/L2) (bispecific antibody)
chain 1: not shown
chain 2: NFMLTQPHSVSESPGKTVTISCTRSSGSLANYYVQWYQQRPGSSPTIVIFANNQRPSGVPDRFSGSIDSSSNSASLTISGLKTEDEADYYCQTYDPYSVVFGGGTKLTVLGQPKAAPSVTLFPPSSEQLQANKAKLVCLISDFYPGAVTVAWKADSSPVKAGVETTTPSKQSNNKYAASSYLSLTPEQWKSHRSYSCQVTHEGSTVEKTVAPTECS
chain 3: not shown
chain 4: DIQMTQSPSSLSASVGDRVTITCKASQDVSIGVAWYQQKPGKAPKLLIYSASYRYTGVPSRFSGSGSGTDFTLTISSLQPEDFATYYCQQYYIYPYTFGQGTKVEIKRTVAAPSVFIFPPSDEELKSGTASVDCLLNNFYPREAKVQWKVDNALQSGNSQESVTEQDSKDSTYSLSSTLTLSKADYEKHKVYACEVTHQGLSSPVTKSFNRGEC
Take B2: the Kd with Recombinant human IL-17A [3] came to 0.45 nM. Moreover, in the test with Recombinant human IL-17A [4], the “Difference in H1L1 log(KD)” value was -0.08 log(KD).

B3: Design 2979 bispecific antibody, System B (CAT-2200 H1/L1 & SGN-CD19a H2/L2) (bispecific antibody)
chain 1: not shown
chain 2: NFMLTQPHSVSESPGKTVTISCTRSSGSLANYYVQWYQQRPGSSPTIVIFANNQRPSGVPDRFSGSIDSSSNSASLTISGLKTEDEADYYCQTYDPYSVVFGGGTKLTVLGQPKAAPSVTLFPPSSEELQANKATLVCLISDFYPGAVTVAWKADSSPVKAGVETTTPSKQSNNKYAAESELSLTPEQWKSHRSYSCQVTHEGSTVEKTVAPTECS
chain 3: not shown
chain 4: EIVLTQSPATLSLSPGERATLSCSASSSVSYMHWYQQKPGQAPRLLIYDTSKLASGIPARFSGSGSGTDFTLTISSLEPEDFAVYYCFQGSVYPFTFGQGTKLEIKRTVAAPSVFIFPPSDEQLKSGTARVGCLLNNFYPREAKVQWKVDNALQSGNSQESVTEQDSKDSTYSLRSTLTLSKADYEKHKVYACEVTHQGLSSPVTKSFNRGEC
For the molecule B3, the “Difference in H1L1 log(KD)” value in the test with Recombinant human IL-17A [1] is -0.14. In addition, the Kd in test [5] worked out at 149 nM; with Recombinant human IL-17A [2], 0.39 nM. In addition, the “Difference in H2L2 log(KD) from wild type” value (“Difference in H2L2 log(KD)” for short) in test [6] was determined as 0.18.

B4: Design 3931 bispecific antibody, System A (CAT-2200 H1/L1 & Pertuzumab H2/L2) (bispecific antibody)
chain 1: not shown
chain 2: NFMLTQPHSVSESPGKTVTISCTRSSGSLANYYVQWYQQRPGSSPTIVIFANNQRPSGVPDRFSGSIDSSSNSASLTISGLKTEDEADYYCQTYDPYSVVFGGGTKLTVLGQPKAAPSVTLFPPSSEELQANKATLVCLISDFYPGAVTVAWKADSSPVKAGVETTTPSKQSNNKYAASSKLSLTPEQWKSHRSYSCQVTHEGSTVEKTVAPTECS
chain 3: not shown
chain 4: DIQMTQSPSSLSASVGDRVTITCKASQDVSIGVAWYQQKPGKAPKLLIYSASYRYTGVPSRFSGSGSGTDFTLTISSLQPEDFATYYCQQYYIYPYTFGQGTKVEIKRTVAAPSVFIFPPSDEQLKSGTASVGCLLNNFYPREAKVQWKVDNALQSGNSQESVTEQDSKDSTYSLDSTLTLSKADYEKHKVYACEVTHQGLSSPVTKSFNRGEC
Take B4: in the test with Recombinant human IL-17A [3], the dissociation constant Kd stood at 0.44 nM. Also, in the test with Recombinant human IL-17A [4], the “Difference in H1L1 log(KD)” value was -0.07 log(KD).

B5: Design 2994 bispecific antibody, System B (CAT-2200 H1/L1 & SGN-CD19a H2/L2) (bispecific antibody)
chain 1: not shown
chain 2: NFMLTQPHSVSESPGKTVTISCTRSSGSLANYYVQWYQQRPGSSPTIVIFANNQRPSGVPDRFSGSIDSSSNSASLTISGLKTEDEADYYCQTYDPYSVVFGGGTKLTVLGQPKAAPSVTLFPPSSEQLQANKAKLVCLISDFYPGAVTVAWKADSSPVKAGVETTTPSKQSNNKYAASSYLSLTPEQWKSHRSYSCQVTHEGSTVEKTVAPTECS
chain 3: not shown
chain 4: EIVLTQSPATLSLSPGERATLSCSASSSVSYMHWYQQKPGQAPRLLIYDTSKLASGIPARFSGSGSGTDFTLTISSLEPEDFAVYYCFQGSVYPFTFGQGTKLEIKRTVAAPSVFIFPPSDEELKSGTASVDCLLNNFYPREAKVQWKVDNALQSGNSQESVTEQDSKDSTYSLSSTLTLSKADYEKHKVYACEVTHQGLSSPVTKSFNRGEC
For the molecule B5, the Kd with Recombinant human IL-17A [3] stood at 0.28 nM; in test [7], 49.7 nM. The “Difference in H2L2 log(KD)” value in test [8] is 0.16 log(KD). Moreover, in the test with Recombinant human IL-17A [4], the “Difference in H1L1 log(KD)” value was 0.12 log(KD).

B6: Design 3967 bispecific antibody, System A (CAT-2200 H1/L1 & Pertuzumab H2/L2) (bispecific antibody)
chain 1: not shown
chain 2: NFMLTQPHSVSESPGKTVTISCTRSSGSLANYYVQWYQQRPGSSPTIVIFANNQRPSGVPDRFSGSIDSSSNSASLTISGLKTEDEADYYCQTYDPYSVVFGGGTKLTVLGQPKAAPSVTLFPPSDEELQANTATLVCLISDFYPGAVTVAWKADSSPVKAGVETTTPSKQSNNKYAAESELSLTPEQWKSHRSYSCQVTHEGSTVEKTVAPTECS
chain 3: not shown
chain 4: DIQMTQSPSSLSASVGDRVTITCKASQDVSIGVAWYQQKPGKAPKLLIYSASYRYTGVPSRFSGSGSGTDFTLTISSLQPEDFATYYCQQYYIYPYTFGQGTKVEIKRTVAAPSVFIFPPKDERLKSGTASVVCLLNNFYPREAKVQWKVDNALQSGNSQESVTEQDSKDSTYSLSSRLTLSKADYEKHKVYACEVTHQGLSSPVTKSFNRGEC
As to B6, the Kd with Recombinant human IL-17A [3] was found to be 0.37 nM. The “Difference in H1L1 log(KD)” value in the test with Recombinant human IL-17A [4] is -0.11 log(KD).

B7: Design 3931 bispecific antibody, System B (CAT-2200 H1/L1 & SGN-CD19a H2/L2) (bispecific antibody)
chain 1: not shown
chain 2: NFMLTQPHSVSESPGKTVTISCTRSSGSLANYYVQWYQQRPGSSPTIVIFANNQRPSGVPDRFSGSIDSSSNSASLTISGLKTEDEADYYCQTYDPYSVVFGGGTKLTVLGQPKAAPSVTLFPPSSEELQANKATLVCLISDFYPGAVTVAWKADSSPVKAGVETTTPSKQSNNKYAASSKLSLTPEQWKSHRSYSCQVTHEGSTVEKTVAPTECS
chain 3: not shown
chain 4: EIVLTQSPATLSLSPGERATLSCSASSSVSYMHWYQQKPGQAPRLLIYDTSKLASGIPARFSGSGSGTDFTLTISSLEPEDFAVYYCFQGSVYPFTFGQGTKLEIKRTVAAPSVFIFPPSDEQLKSGTASVGCLLNNFYPREAKVQWKVDNALQSGNSQESVTEQDSKDSTYSLDSTLTLSKADYEKHKVYACEVTHQGLSSPVTKSFNRGEC
With B7, the Kd with Recombinant human IL-17A [3] amounted to 0.29 nM; in test [7] it was 54.9 nM. In addition, the “Difference in H2L2 log(KD)” value in test [8] was 0.09 log(KD). The “Difference in H1L1 log(KD)” value with Recombinant human IL-17A [4] is 0.11 log(KD).

B8: Design 3967 bispecific antibody, System B (CAT-2200 H1/L1 & SGN-CD19a H2/L2) (bispecific antibody)
chain 1: not shown
chain 2: NFMLTQPHSVSESPGKTVTISCTRSSGSLANYYVQWYQQRPGSSPTIVIFANNQRPSGVPDRFSGSIDSSSNSASLTISGLKTEDEADYYCQTYDPYSVVFGGGTKLTVLGQPKAAPSVTLFPPSDEELQANTATLVCLISDFYPGAVTVAWKADSSPVKAGVETTTPSKQSNNKYAAESELSLTPEQWKSHRSYSCQVTHEGSTVEKTVAPTECS
chain 3: not shown
chain 4: EIVLTQSPATLSLSPGERATLSCSASSSVSYMHWYQQKPGQAPRLLIYDTSKLASGIPARFSGSGSGTDFTLTISSLEPEDFAVYYCFQGSVYPFTFGQGTKLEIKRTVAAPSVFIFPPKDERLKSGTASVVCLLNNFYPREAKVQWKVDNALQSGNSQESVTEQDSKDSTYSLSSRLTLSKADYEKHKVYACEVTHQGLSSPVTKSFNRGEC
As for B8, the Kd with Recombinant human IL-17A [3] turned out to be 0.38 nM; in test [7], 36.1 nM. Also, the “Difference in H2L2 log(KD)” value in test [8] is 0.27 log(KD). Moreover, the “Difference in H1L1 log(KD)” value with Recombinant human IL-17A [4] was -0.13 log(KD).

B9: Design 3113 bispecific antibody, System A (CAT-2200 H1/L1 & Pertuzumab H2/L2) (bispecific antibody)
chain 1: not shown
chain 2: NFMLTQPHSVSESPGKTVTISCTRSSGSLANYYVQWYQQRPGSSPTIVIFANNQRPSGVPDRFSGSIDSSSNSASLTISGLKTEDEADYYCQTYDPYSVVFGGGTKLTVLGQPKAAPSVTLFPPSSEELQANKATLDCLISDFYPGAVTVAWKADSSPVKAGVETTTPSKQSNNKYAASSTLSLTPEQWKSHRSYSCQVTHEGSTVEKTVAPTECS
chain 3: not shown
chain 4: DIQMTQSPSSLSASVGDRVTITCKASQDVSIGVAWYQQKPGKAPKLLIYSASYRYTGVPSRFSGSGSGTDFTLTISSLQPEDFATYYCQQYYIYPYTFGQGTKVEIKRTVAAPSVFIFPPSDEQLKSGTARVGCLLNNFYPREAKVQWKVDNALQSGNSQESVTEQDSKDSTYSLRSTLTLSKADYEKHKVYACEVTHQGLSSPVTKSFNRGEC
Regarding B9, the “Difference in H1L1 log(KD)” value with Recombinant human IL-17A [1] is -0.14. For the same molecule, the Kd in the test with Recombinant human IL-17A [2] came to 0.39 nM.

The values are drawn from patent US20190338048A1 (published 2019).
